In publication PMC8286842, “The structures of E. coli NfsA bound to the antibiotic nitrofurantoin; to 1,4-benzoquinone and to FMN” (Biochemical Journal, 2021):

Experiments:
Format in all cases: biochemical, Escherichia coli
[1] = substrate: NC(=O)N/N=C/c1ccc([N+](=O)[O-])o1; assay: steady-state kinetics of reduction by NADPH, purified enzyme; conditions: FMN; pH 7.0; 25.0 °C
[2] = substrate: NC(=O)c1cc(N2CC2)c([N+](=O)[O-])cc1[N+](=O)[O-]; assay: as above; conditions: FMN; pH 7.0; 25.0 °C
purified protein [3] = substrate: O=C1CN(/N=C/c2ccc([N+](=O)[O-])o2)C(=O)N1; assay: purified protein; conditions: FMN active site, parallel to the FMN ring; hydrogen bonds involving Arg […], Lys […], Arg […] and Ser […]; pH 7.0; 25.0 °C
purified protein [4] = substrate: O=C1C=CC(=O)C=C1; assay: purified protein; conditions: FMN active site, stacked on FMN; O2′ hydroxyl of FMN, backbone NH of Ser […], Gln […], close to Arg […]; a separate, additional quinol ring appears covalently attached at Cys […]; pH 7.0; 25.0 °C
purified protein [5] = substrate: CC1=CC(=O)c2ccccc2C1=O; assay: purified protein; conditions: FMN; pH 7.0; 25.0 °C
[6] = substrate: NC(=O)C1=CN([C@@H]2O[C@H](COP(=O)(O)OP(=O)(O)OC[C@H]3O[C@@H](n4cnc5c(N)ncnc54)[C@H](OP(=O)(O)O)[C@@H]3O)[C@@H](O)[C@H]2O)C=CC1; assay: steady-state kinetics, purified enzyme (global ping-pong fit with nitrofurantoin); conditions: FMN; pH 7.0; 25.0 °C; varied: cofactor

B1: NfsA (Escherichia coli K-12) (protein)
chain: MTPTIELICGHRSIRHFTDEPISEAQREAIINSARATSSSSFLQCSSIIRITDKALREELVTLTGGQKHVAQAAEFWVFCADFNRHLQICPDAQLGLAEQLLLGVVDTAMMAQNALIAAESLGLGGVYIGGLRNNIEAVTKLLKLPQHVLPLFGLCLGWPADNPDLKPRLPASILVHENSYQPLDKGALAQYDEQLAEYYLTRGSNNRRDTWSDHIRRTIIKESRPFILDYLHKQGWATR
notes: untagged, dimer
Which Km [1] does the source give for B1 here?
Its Km is 13 ± 2 (Km) µM.

And the kcat [1]?
Its kcat is 29.6 ± 0.9 s⁻¹.

What about the kcat/Km [1] of the same protein?
Its kcat/Km is 2.3e+06 ± 200000 M⁻¹ s⁻¹.

And the Km [2]?
Its Km is 190 ± 20 (Km) µM.

And the kcat [2]?
Its kcat is 42 ± 1 s⁻¹.

What about the kcat/Km [2] of the same protein?
The kcat/Km was 230000 ± 2000 M⁻¹ s⁻¹.

And the Km (purified protein [3])?
Its Km is 20.6 ± 1.6 (Km) µM.

What about the kcat (purified protein [3]) of the same protein?
The kcat was 81 ± 3 s⁻¹.

What about the kcat/Km (purified protein [3]) of the same protein?
The kcat/Km was 3.9e+06 ± 200000 M⁻¹ s⁻¹.

And the Km (purified protein [4])?
Its Km is 3 ± 0.4 (Km app) µM.

What about the kcat (purified protein [4]) of the same protein?
The kcat was 24 ± 0.8 s⁻¹.

What about the kcat/Km (purified protein [4]) of the same protein?
Its kcat/Km is 8e+06 ± 800000 M⁻¹ s⁻¹.

And the Km (purified protein [5])?
Its Km is 11 ± 2 (Km app) µM.

And the kcat (purified protein [5])?
The kcat was 9 ± 0.4 s⁻¹.

And the kcat/Km (purified protein [5])?
The kcat/Km was 820000 ± 80000 M⁻¹ s⁻¹.

What about the Km [6] of the same protein?
The Km was 10.9 ± 1.6 (Km) µM.

And the kcat [6]?
The kcat was 81 ± 3 s⁻¹.

And the kcat/Km [6]?
Its kcat/Km is 7.4e+06 ± 1e+06 M⁻¹ s⁻¹.
